What was measured:
TGFBR2 = TGFBR2 surface expression (knockdown or knockout) on T cells by flow cytometry; format: cell-based, human; conditions: for TGFBR2 knockout frequency, percent of cells in the culture: 6 days after electroporation of nuclease RNA, vs mock nucleofected
Protocol: Nucleofection was carried out in the presence of 2 μg/1×10^6 cells of linearized DNA encoding the CAR and one of the candidate TGFBR2 shRNAmiRs.
Cells were analyzed for TGFBR2 expression at d7, 10, and 14 post-nucleofection using the anti-TGFBR2 antibody MM0056-4F14 (Abcam), and an anti-mouse kappa light chain secondary antibody conjugated to PE (BioLegend). CAR+ cells were identified using anti-FMC63-Alx647, produced in house. The mean fluorescence intensity (MFI) of TGFBR2 signal on the CAR+ was compared to that on the CAR− cells and a percent knockdown was calculated. The frequency of CAR+ events was consistent across the different constructs, ranging from 4.9% to 6.7% (FIG. 12).
Electroporated cells were cultured for 6 days in complete X-VIVO15 medium supplemented with 30 ng/ml IL-2 prior to an analysis of editing efficiency. This was achieved by staining cells with an anti-TGFβRII antibody (Abcam clone MM0056-4F14) followed by anti-mouse IgG κ light chain conjugated to PE (BioLegend clone RMK45). Data were acquired on a Beckman-Coulter CytoFLEX-S or LX.
Mock nucleofected T cells were stained with the anti-TGFβRII antibody and the secondary antibody or the secondary antibody alone to serve as positive and negative controls, respectively, for surface detection of TGFβRII.
A further study was conducted in which the activity of CAR T cells was assessed following various alterations to the TGFβ pathway. […] In some variants, a sequence encoding a shRNAmiR was also introduced at the TRC 1-2 site in the same cassette as the CAR (positioned between the CAR stop codon and a polyA sequence). In one variant, the shRNAmiR was a TGFBR2-specific shRNAmiR (construct 72154) while in another variant a shRNAmiR that is irrelevant to TGFβ function (targeting B2M—construct 72155) was introduced. A third variant of CAR T cells was produced using construct 72155, but they were edited at the TGFBR2 locus using the TGF1-2L296 nuclease described above in order to knockout the TGFBR2 gene. CAR T cells in the TGFBR2 KO group contained 60% KO.

SMAD2/3 = assay: Phosphorylated SMAD2/3 after TGFβ1 stimulation by flow cytometry; format: cell-based, human; conditions: BCMA CAR T cells, TGFβ1 500 ng/ml
Source text: T cells electroporated with TRC1-2L.1592 were immediately transduced with AAV72112 (encoding the anti-CD19 FMC63 CAR described in Example 1 and a TGFBR2-specific shRNAmiR inserted after the CAR stop codon and before a polyA sequence) or AAV7206 (encoding a control FMC63 CAR with no RNAi). Following six days of culture, CD3-CAR+ cells were purified by FACS using methods described above. In addition, TGFβRII-cells from TGF1-2L.296-edited cultures were sorted in this manner. Sorted cells were rested in serum free medium overnight before being stimulated with 500 ng/ml of recombinant human TGFβ1, the ligand for TGFBR2 (PeproTech). Thirty minutes following TGFβ1 addition, cells were harvested and immediately prepared for staining using Phos-Flow lyse-fix buffer and Phos-Flow Fix-Perm buffer III (BD Biosciences) according to the manufacturer's instructions. Fixed cells were stained with anti-pSMAD2/3-PE (BD Biosciences) and data were acquired on a Beckman-Coulter CytoFLEX-LX. […]
BCMA CAR T cells having knock out of TGFBR2 were prepared with the TGF 1-2L.296 meganuclease and cells having knock down of TGFBR2 were prepared with the 72112 TGFBR2 shRNAmiR as described above. The respective BCMA CAR T cell groups were treated with TGFβ1 (500 ng/ml) and all cell groups were harvested and analyzed as described above. […]

Molecule | TGFBR2 knockout frequency, percent of cells in the culture (TGFBR2) [%] | TGFBR2 KO in CAR T cell group (TGFBR2; BCMA CAR T cells, construct 72155 plus nuclease) [%] | pSMAD2/3 level after TGFβ1 (SMAD2/3)
TGF 1-2L.296: engineered meganuclease targeting the TGFBR2 gene (SEQ ID NO: 65) (protein) MNTKYNKEFLLYLAGFVDGDGSIYACITPKQRSKFKHSLRLRFTVGQKTQRRWFLDKLVDEIGVGYVLDGGGVSEYRLSEIKPLHNFLTQLQPFLKLKQKQANLVLKIIEQLPSAKESPDKFLEVCTWVDQIAALNDSKTRKTTSETVRAVLDSLPGSVGGLSPSQASSATSSASSSPGSGISEALRAGAGSGTGYNKEFLLYLAGFVDGDGSIYACIEPDQSRKFKHTLRLYFEVGQKTQRRWFLDKLVDEIGVGYVYDRGSVSNYRLSEIKPLHNFLTQLQPFLKLKQKQANLVLKIIEQLPSAKESPDKFLEVCTWVDQIAALNDSKTRKTTSETVRAVLDSLSEKKKSSP | 69 | 60 | decreased pSMAD2/3 to levels comparable to, or lower than, the untreated BCMA CAR T cell control
TGF 1-2x.5: engineered meganuclease targeting the TGFBR2 gene (SEQ ID NO: 64) (protein) MNTKYNKEFLLYLAGFVDGDGSIYACIEPDQSRKFKHTLRLYFEVGQKTQRRWFLDKLVDEIGVGYVYDRGSVSNYRLSEIKPLHNFLTQLQPFLKLKQKQANLVLKIIEQLPSAKESPDKFLEVCTWVDQIAALNDSKTRKTTSETVRAVLDSLPGSVGGLSPSQASSAASSASSSPGSGISEALRAGAGSGTGYNKEFLLYLAGFVDGDGSIFACITPSQTHKFKHRLFLRFTVGQKTQRRWFLDKLVDEIGVGYVVDSGSVSEYRLSQIKPLHNFLTQLQPFLKLKQKQANLVLKIIEQLPSAKESPDKFLEVCTWVDQIAALNDSKTRKTTSETVRAVLDSLSEKKKSSP | 38.6 |  | 

From patent US11851680B2, “Genetically-modified immune cells comprising a microRNA-adapted shRNA (shRNAmiR)” (Precision Biosciences, Inc., priority 2019, dated 2023)
